From patent publication US10538802B2, “Polypeptide substrate for the detection of von Williebrand factor cleaving protease ADAMTS13” (IMMUCOR GTI DIAGNOSTICS, INC., priority 2011, dated 2020)

Target: T1, ADAMTS13 (Homo sapiens, UniProt Q76LX8)
T1 construct: tissue Gen-Probe GTI Diagnostics (ATS-13 kit calibrators, controls and proficiency samples); George King Biomedical Inc. (FACT, A-FACT, B-FACT plasmas) ATS-13; host or cells: plasma
T1 sequence (Q76LX8 75-1427): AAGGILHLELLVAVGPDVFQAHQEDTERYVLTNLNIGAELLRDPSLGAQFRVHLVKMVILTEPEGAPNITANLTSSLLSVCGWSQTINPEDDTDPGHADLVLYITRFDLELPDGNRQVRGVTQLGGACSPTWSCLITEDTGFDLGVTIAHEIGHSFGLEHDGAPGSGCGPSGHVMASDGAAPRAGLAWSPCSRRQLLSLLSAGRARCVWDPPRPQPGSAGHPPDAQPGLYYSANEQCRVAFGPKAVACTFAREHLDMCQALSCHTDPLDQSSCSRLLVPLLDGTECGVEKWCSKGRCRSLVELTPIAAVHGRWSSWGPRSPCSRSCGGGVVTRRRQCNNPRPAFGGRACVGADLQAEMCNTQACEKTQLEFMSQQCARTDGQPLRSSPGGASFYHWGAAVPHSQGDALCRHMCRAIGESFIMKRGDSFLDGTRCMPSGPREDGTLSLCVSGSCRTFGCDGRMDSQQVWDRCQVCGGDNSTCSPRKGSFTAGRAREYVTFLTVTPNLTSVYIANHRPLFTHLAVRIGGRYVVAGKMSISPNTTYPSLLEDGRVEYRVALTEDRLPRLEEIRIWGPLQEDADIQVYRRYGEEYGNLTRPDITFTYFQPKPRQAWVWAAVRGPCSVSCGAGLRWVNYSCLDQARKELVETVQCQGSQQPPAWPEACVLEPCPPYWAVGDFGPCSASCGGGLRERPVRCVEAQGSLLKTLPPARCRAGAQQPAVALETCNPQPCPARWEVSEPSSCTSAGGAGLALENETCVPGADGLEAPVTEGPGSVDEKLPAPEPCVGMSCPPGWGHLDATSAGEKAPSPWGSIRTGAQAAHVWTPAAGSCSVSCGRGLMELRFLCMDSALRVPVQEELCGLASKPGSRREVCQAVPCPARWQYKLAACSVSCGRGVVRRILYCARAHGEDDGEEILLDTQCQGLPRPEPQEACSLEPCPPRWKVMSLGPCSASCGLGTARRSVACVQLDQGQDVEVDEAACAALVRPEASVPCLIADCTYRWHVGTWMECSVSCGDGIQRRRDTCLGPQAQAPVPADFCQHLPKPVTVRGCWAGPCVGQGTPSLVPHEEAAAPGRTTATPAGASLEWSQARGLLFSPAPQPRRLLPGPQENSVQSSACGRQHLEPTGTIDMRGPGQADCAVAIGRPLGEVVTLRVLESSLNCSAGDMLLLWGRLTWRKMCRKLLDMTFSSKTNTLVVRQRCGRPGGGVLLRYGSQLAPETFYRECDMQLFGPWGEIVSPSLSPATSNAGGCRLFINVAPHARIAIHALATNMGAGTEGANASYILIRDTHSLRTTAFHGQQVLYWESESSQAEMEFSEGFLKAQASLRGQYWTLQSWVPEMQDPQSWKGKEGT
Test: ADAMTS13 activity assay with fluorogenic (FRET) polypeptide substrate and diluted plasma samples
Format: biochemical
Experimental: The procedure in this example was performed substantially as described in Kokame, K., Y. Nobe, Y. Kokubo, A. Okayama, and T. Miyata. 2005. FRETS-VWF73, a first fluorogenic substrate for ADAMTS13 assay. Br. J. Haematol. 129:93-100, but using SEQ ID NO: 1 in place of the 73 amino acid substrate described therein. The FRETS-VWF73 substrate solution was dissolved in 25% dimethyl sulphoxide/water to prepare the 100 microM stock solution. The GTI FRET4 SEQ ID NO: 1 was dissolved in 100% DMSO. Both substrates were diluted to equal concentrations using ATS-13 substrate buffer (Gen-Probe GT1 Diagnostics, Inc., U.S.A., Cat#ATS-13).
Plasma samples were diluted according to the ATS-13 Direction Insert using ATS-13 specimen diluent (Gen-Probe GTI Diagnostics, Inc., U.S.A., Cat# ATS-13). The diluted plasma samples were mixed with the diluted substrate and the fluorescence was read at 0, 5, 10, 15, 20, 30, 45 minutes using a Biotek FLX800 at the appropriate excitation and emission wavelengths for each substrate.
The fluorophore-quencher pair in the SEQ ID NO: 1 polypeptide substrate is FAM-5/TQ 2^Tm (Ex 485±20; Em 528±20; AAT Bioquest, Inc. Sunnyvale, Calif. U.S.A.). The fluorophore and quencher pair of FRETS-VWF73 (Nma/Dnp) described in Kokame has been substituted with FAM-5 and TQ_2 respectively in GTI_FRET4 SEQ ID NO: 1. Furthermore, in the SEQ ID NO: 1 polypeptide the position of the fluorophore (FAM-5) and quencher (TQ_2) has been swapped relative to the position of the fluorophore and quencher of the FRETS-VWF73 construct. Therefore, for GTI_FRET4 SEQ ID NO: 1, attachment of the fluorophore (FAM-5) occurs by substituting asparagine with cystine at position 15. The quencher (TQ_2) was attached by substituting glutamine with lysine at position 4 (FIG. 2 and Table 4).
For this experiment, substrate concentration and fluorescence reader settings determined on the previous experiment are used. The specimens tested (listed in Table 3), include a panel of proficiency samples prepared for use with ATS-13 (Gen-Probe GTI Diagnostics, Inc., U.S.A., Cat# ATS-13) which included samples with normal or deficient ADAMTS13 activity levels. In addition, six Factor Assay ConTrol plasma were used (2 FACT, 2 A-FACT and 2 B-FACT, from George King Biomedical Inc., Kansas, USA). The assays for the SEQ ID NO: 1 substrate and for the prior art FRETS-VWF73 assay were performed generally as according to the procedure described in Example 1. Substrate is prepared according to the conditions used for initial testing of the substrate, which prepared the molar amount of SEQ ID NO: 1 polypeptide substrate used in the assay to be equivalent to the molar amount of FRETS-VWF73 used in the prior art. The […] assays were read at 0, 5, 10, 15, 20, 30, 45 minutes.
Testing of substrate for cleavability by ADAMTS13 is determined as is generally described in Example 1. […]

Sequence: DREKAPNLVYMVTGCPASDEIKRLPGDIQVVPIEVIGWPNAPILIQDEETLPREAPDLVLQR [GTI_FRET4]
- Increase in Fluorescence Values (X minute - 0 minute Reading) (sample Calibrator A, 60 min): 1,166 RFU
- Increase in Fluorescence Values (X minute - 0 minute Reading) (sample Calibrator A, 75 min): 1,013 RFU
- Increase in Fluorescence Values (X minute - 0 minute Reading) (sample Calibrator A, 90 min): 959 RFU
- % Normal ADAMTS13 Values Calculated Using GTI_FRET4 Substrate (sample Calibrator A, incubation 15 Minutes): 1 % Normal
- % Normal ADAMTS13 Values Calculated Using GTI_FRET4 Substrate (sample Calibrator A, incubation 30 Minutes): 1 % Normal
- % Normal ADAMTS13 Values Calculated Using GTI_FRET4 Substrate (sample Calibrator A, incubation 45 Minutes): 0 % Normal
- % Normal ADAMTS13 Values Calculated Using GTI_FRET4 Substrate (sample Calibrator A, incubation 60 Minutes): 0 % Normal
- % Normal ADAMTS13 Values Calculated Using GTI_FRET4 Substrate (sample Calibrator A, incubation 75 Minutes): 0 % Normal
- % Normal ADAMTS13 Values Calculated Using GTI_FRET4 Substrate (sample Calibrator A, incubation 90 Minutes): 0 % Normal
- Increase in Fluorescence Values (X minute - 0 minute Reading) (sample Calibrator B, 15 min): 1,765 RFU
- Increase in Fluorescence Values (X minute - 0 minute Reading) (sample Calibrator B, 30 min): 3,000 RFU
- Increase in Fluorescence Values (X minute - 0 minute Reading) (sample Calibrator B, 45 min): 4,164 RFU
- Increase in Fluorescence Values (X minute - 0 minute Reading) (sample Calibrator B, 60 min): 5,358 RFU
- Increase in Fluorescence Values (X minute - 0 minute Reading) (sample Calibrator B, 75 min): 6,468 RFU
- Increase in Fluorescence Values (X minute - 0 minute Reading) (sample Calibrator B, 90 min): 7,581 RFU
- % Normal ADAMTS13 Values Calculated Using GTI_FRET4 Substrate (sample Calibrator B, incubation 15 Minutes): 7 % Normal
- % Normal ADAMTS13 Values Calculated Using GTI_FRET4 Substrate (sample Calibrator B, incubation 30 Minutes): 7 % Normal
- % Normal ADAMTS13 Values Calculated Using GTI_FRET4 Substrate (sample Calibrator B, incubation 45 Minutes): 7 % Normal
- % Normal ADAMTS13 Values Calculated Using GTI_FRET4 Substrate (sample Calibrator B, incubation 60 Minutes): 7 % Normal
- % Normal ADAMTS13 Values Calculated Using GTI_FRET4 Substrate (sample Calibrator B, incubation 75 Minutes): 6 % Normal
- % Normal ADAMTS13 Values Calculated Using GTI_FRET4 Substrate (sample Calibrator B, incubation 90 Minutes): 6 % Normal
- Increase in Fluorescence Values (X minute - 0 minute Reading) (sample Calibrator C, 15 min): 6,178 RFU
- Increase in Fluorescence Values (X minute - 0 minute Reading) (sample Calibrator C, 30 min): 11,701 RFU
- Increase in Fluorescence Values (X minute - 0 minute Reading) (sample Calibrator C, 45 min): 16,807 RFU
- Increase in Fluorescence Values (X minute - 0 minute Reading) (sample Calibrator C, 60 min): 21,705 RFU
- Increase in Fluorescence Values (X minute - 0 minute Reading) (sample Calibrator C, 75 min): 26,685 RFU
- Increase in Fluorescence Values (X minute - 0 minute Reading) (sample Calibrator C, 90 min): 32,209 RFU
- % Normal ADAMTS13 Values Calculated Using GTI_FRET4 Substrate (sample Calibrator C, incubation 15 Minutes): 32 % Normal
- % Normal ADAMTS13 Values Calculated Using GTI_FRET4 Substrate (sample Calibrator C, incubation 30 Minutes): 33 % Normal
- % Normal ADAMTS13 Values Calculated Using GTI_FRET4 Substrate (sample Calibrator C, incubation 45 Minutes): 33 % Normal
- % Normal ADAMTS13 Values Calculated Using GTI_FRET4 Substrate (sample Calibrator C, incubation 60 Minutes): 34 % Normal
- % Normal ADAMTS13 Values Calculated Using GTI_FRET4 Substrate (sample Calibrator C, incubation 75 Minutes): 35 % Normal
- % Normal ADAMTS13 Values Calculated Using GTI_FRET4 Substrate (sample Calibrator C, incubation 90 Minutes): 36 % Normal
- Increase in Fluorescence Values (X minute - 0 minute Reading) (sample Calibrator D, 15 min): 10,887 RFU
- Increase in Fluorescence Values (X minute - 0 minute Reading) (sample Calibrator D, 30 min): 20,626 RFU
- Increase in Fluorescence Values (X minute - 0 minute Reading) (sample Calibrator D, 45 min): 29,206 RFU
- Increase in Fluorescence Values (X minute - 0 minute Reading) (sample Calibrator D, 60 min): 37,289 RFU
- Increase in Fluorescence Values (X minute - 0 minute Reading) (sample Calibrator D, 75 min): 44,543 RFU
- Increase in Fluorescence Values (X minute - 0 minute Reading) (sample Calibrator D, 90 min): 53,613 RFU
